From paper PMC4241754 (Biochemistry, 2010)

Target: the molecule itself
Experiment: crystal structure

B1: WlbA from Pseudomonas aeruginosa (enzyme)
chain: MASKNFALIGAAGYIAPRHMRAIKDTGNCLVSAYDINDSVGIIDSISPQSEFFTEFEFFLDHASNLKRDSATALDYVSICSPNYLHYPHIAAGLRLGCDVICEKPLVPTPEMLDQLAVIERETDKRLYNILQLRHHQAIIALKDKVAREKSPHKYEVDLTYITSRGNWYLKSWKGDPRKSFGVATNIGVHFYDMLHFIFGKLQRNVVHFTSEYKAAGYLEYEQARVRWFLSVDANDLPESVKGKKPTYRSITVNGEEMEFSEGFTDLHTTSYEEILAGRGYGIDDARHCVETVNTIRSAVIVPASDNEGHPFVAALAR
- stoichiometry N: 4
